Results from article PMC9712106.

B1: anti-PfPTRAMP nanobody H8 (VHH)
VHH: QVQLQESGGGLVQPGGSLRLSCAASGFTFSSYWMYWVRQAPGKGLEWVSAINTGGGSTAYADSVKGRFTISRDNAKNTLYLQMNSLKSDDTAVYYCVKARGSSWSDRVFDYWGQGTQVTVSS
B2: anti-PfPTRAMP nanobody H10 (VHH)
VHH: QVQLQESGGGLVQPGGSLRLSCAASGFTFDNYWMYWVRQAPGKGLEWVSAINTVGSHTYYADSVKGRFTISRDNAKNTLYLQMNSLKSEDTAVYYCAKGPWGFGTSGWGEMDYWGKGTQVTVSS

Key:
[1] = target: PfPTRAMP (42-309) with a C-terminal Avitag, biotinylated (Plasmodium falciparum); test: BLI; biotinylated PfPTRAMP or PTRAMP-CSS immobilised on High Precision Streptavidin (SAX) biosensors; twofold dilution series of anti-PfPTRAMP nanobody; 25 °C; kinetics buffer (PBS pH 7.4, 0.1% BSA, 0.02% Tween-20); 1:1 model; mean of two independent experiments
[2] = target: biotinylated PTRAMP-CSS heterodimer: PfPTRAMP (42-309) with C-terminal Avitag, with PfCSS (20-290) (Plasmodium falciparum); test: as above

Binder	Kd [1] [µM]	koff [1] [s⁻¹]	kon [1] [M⁻¹ s⁻¹]	Kd [2] [µM]	koff [2] [s⁻¹]	kon [2] [M⁻¹ s⁻¹]
B1	0.4	0.25	620000	0.41	0.25	790000
B2	0.53	0.088	170000	0.39	0.077	200000
